Experiment [1] concerns the target nonphosphorylated rat cardiac troponin complex (cTn-0P), Alexa647-labelled (rat) (UniProt Q4PP99). Put plainly: MST.
Experiment [2] concerns the target Ser22/23 bisphosphorylated rat cardiac troponin complex (cTn-2P), Alexa647-labelled (rat) (UniProt Q4PP99). Put plainly: MST.
Experiment [3] deals with N-terminal lobe of cardiac troponin C (NcTnC), Alexa647-labelled. Put plainly: MST.
The target in experiment [4] is nonphosphorylated rat cardiac troponin complex (cTn-0P), Alexa647-labelled (rat) (UniProt Q4PP99). The experiment can be described thus: MST. This is another data set of the same source.
Experiment [5] has as its target Ser22/23 bisphosphorylated rat cardiac troponin complex (cTn-2P), Alexa647-labelled (rat) (UniProt Q4PP99). Put plainly: MST. This is another data set of the same source.
Experiment [6] addresses rat cardiac troponin T (cTnT) (rat) (UniProt P50753). Put plainly: SEC-MALS. On the technique in general: SEC sorts molecules by how far they enter the pores of the column.

Like-named read-outs stand apart in the source and are kept apart here.

On to “nonphosphorylated N-terminal fragment of rat cMyBP-C encompassing domains C0, C1, m-motif and C2 (cC0C2-0P) (domain or fragment)”, for which the dissociation constant Kd (usually the free concentration of one partner at which half of the binding sites on the other are occupied at equilibrium, for simple one-to-one binding) in experiment [1] turned out to be 20 µM; in experiment [2], 20 µM; in experiment [3] it was 5 µM; in experiment [4] it was 20 µM; in experiment [5], 20 µM.

With “rat cardiac troponin C (cTnC) (from UniProt Q4PP99 1-161) (natural protein)”, the stoichiometry N – broadly, a count of units in the complex or per binding partner – in experiment [6] was 1.

Values taken from publication PMC9826837.
